Assay [1] concerns the target human IgG-HRP (human). The experiment in a line: ELISA, coated protein, human IgG-HRP, n=12. Background: In an ELISA, binding on a coated surface is turned into a signal by an enzyme label.
In assay [2] the target is human IgG-HRP (human). The experiment in a line: ELISA, SpA coated, human IgG-HRP, PBS in place of F(ab)2, n=5.

The values below come from US20160304566A1.

As to SpA5wt (from UniProt P38507 37-327), the OD450 nm, Mean value with human IgG-HRP (human) [1] was 0.625 OD.

Consider SpA (252) (from UniProt P38507 37-508), for which the OD450 nm, Ave with human IgG-HRP (human) [2] was 0.641 OD. This substance gave an OD450 nm, Mean value with human IgG-HRP (human) [1] of 0.635 OD.

In the case of “SpA5 (RRVV) (from UniProt P38507 37-327)”, the OD450 nm, Mean value in the assay with human IgG-HRP (human) [1] was determined as 0.062 OD.
